Results reported in patent publication US20250250593A1, “METHOD FOR PREPARING ALPHA-BRANCHED BETA'-HYDROXY CARBONYL COMPOUNDS BY ENZYMATIC-CATALYZED REDUCTIVE ALDOL REACTION” (Max-Planck-Gesellschaft zur Förderung der Wissenschaften …, priority 2022, published 2025).

Legend:
KsCcr [1] = assay: HPLC analysis of reaction products: 2-HMB-CoA formed over total products from crotonyl-CoA and formaldehyde; assay type: biochemical, Kitasatospora setae; conditions: for Ratio of 2-HMB-CoA formed over total products: triplicates, mean ± standard deviation, values given as %
From the text: KsCcr wild-type (WT) natively promotes the NADPH-dependent reductive carboxylation of crotonyl-CoA into ethylmalonyl-CoA. […] Under these conditions, neither ethylmalonyl-CoA (carboxylation product) nor butyryl-CoA (reduction side product) were detected with LC-MS (see Table 2 further below). […] The compound was isolated and its structure was further verified using 2-dimensional NMR and high-resolution MS experiments. […] The newly introduced carbon was also observed in the ^13C-NMR experiment, confirming formation of aldol product 2-HMB-CoA by KsCcr.
The reaction was diluted 10 times into 5% methanol/Buffer 8.1 and analyzed by HPLC over an Agilent Eclipse Plus C18, 3.5 μm 100 Å, 100×2.1 mm, […] column using 5% to 30% acetonitrile gradient over 7.5 min with 25 mM ammonium formate pH=8.1 as the aqueous phase.

KsCcr [2] = assay: Reductive aldol reaction with longer chain aldehydes (acetaldehyde, propionaldehyde): product share and diastereomeric ratio by LC-MS; assay type: biochemical, Kitasatospora setae
Experimental: The reaction catalyzed by KsCcr generates an (S)-configured stereocenter at the α-position of the reaction product. When using higher substituted aldehydes, a second stereocenter would be generated at the β-position, which would be highly interesting for synthetic organic applications. It was first tested, whether KsCcr would accept longer chain aldehydes. Indeed, in the presence of 500 mM acetaldehyde, the enzyme formed 35% of 2-ethyl-3-hydroxybutyryl-CoA (2-EHB-CoA) over total products, with substantial amounts of butyryl-CoA as a side product. To improve yield, an acyl-CoA oxidase was used to continually recycle the side product butyryl-CoA back into the substrate crotonyl-CoA. With this proof-reading strategy the yield of the reaction could be increased up to 72%. High resolution mass spectrometry together with ^1H^−1H COSY and ^13C-NMR experiments confirmed the structure of 2-EHB-CoA.
To determine the stereochemistry at the β-position the reaction was analyzed by LC-MS and compared the retention times to chemically synthesized (2S,3R)-EHB-CoA and (2S,3S)-EHB-CoA standards.
Determination of CoA esters was performed using a HRES-LC-MS. The chromatographic separation was performed on an Thermo Scientific Vanquish HPLC System using a Kinetex Evo C18 column ([…], 100 Å, 1.7 μm, Phenomenexc) equipped with a 20×2.1 mm guard column of similar specificity at a constant eluent flow rate of 0.3 mL/min and a column temperature of 40° C. with eluent A being 50 mM ammonium formate pH=8.1 and eluent B being MeOH (Honeywell) The injection volume was 1 μl. […]

Molecule	Ratio of 2-HMB-CoA formed over total products (KsCcr [1]; 5 mM formaldehyde)	2-HMB-CoA produced (reductive aldol product) (KsCcr [1]; 75 mM formaldehyde) [%]	Ratio of 2-HMB-CoA formed over total products (KsCcr [1]; 75 mM formaldehyde)	yield of the reaction (2-EHB-CoA) (KsCcr [2]; 500 mM acetaldehyde with acyl-CoA oxidase recycling butyryl-CoA to crotonyl-CoA (proof-reading))	2-ethyl-3-hydroxybutyryl-CoA (2-EHB-CoA) over total products (KsCcr [2]; 500 mM acetaldehyde, butyryl-CoA as side product) [%]	conversion with propionaldehyde (KsCcr [2]; compared with formaldehyde or acetaldehyde, product detected by MS)	aldol product generated (KsCcr [1]; ambient conditions, CO2 not strictly avoided) [%]
KsCcr variant His365Asn: KsCcr active site variant His365Asn, SEQ ID NO: 19 (protein, KsCcr variant His365Asn) MQEILDAILSGDAASADYAALALPESYRAVTLHKGEERMFDGLASRDKDPRKSLHLDDVPLPELGPGEALVAVMASSVNYNTVWSSIFEPVSTFGFLERYGRLSPLTARHDLPYHVLGSDLAGVVLRTGAGVNAWKPGDEVVAHCLSVELESPDGHNDTMMDPEQRIWGFETNFGGLAQLALVKTNQLLPKPKHLTWEEAASPGLVNSTAYRQLVSRNGAGLKQGDNVLIWGASGGLGSYATQYALAGGATPICVVSSPRKADICRAMGAEAIIDRSAEGYRFWKDEHHQDPREWKRLGGKIREFTGGEDVDIVFEHPGRETFGASVYVTRKGGTIVTCASTSGYMHQYDNRYLWMSLKRIVGSNFANYREAFEANRLVAKGKIHPTLSKVYALEETGQAALDVHHNKHQGKVGVLCLAPREGLGVTDPELRSKHLTKINAFRNV	42 ± 1	89	89 ± 0				
KsCcr variant Thr82Asp: KsCcr variant Thr82Asp, SEQ ID NO: 21 (protein, KsCcr variant Thr82Asp) MQEILDAILSGDAASADYAALALPESYRAVTLHKGEERMFDGLASRDKDPRKSLHLDDVPLPELGPGEALVAVMASSVNYNDVWSSIFEPVSTFGFLERYGRLSPLTARHDLPYHVLGSDLAGVVLRTGAGVNAWKPGDEVVAHCLSVELESPDGHNDTMMDPEQRIWGFETNFGGLAQLALVKTNQLLPKPKHLTWEEAASPGLVNSTAYRQLVSRNGAGLKQGDNVLIWGASGGLGSYATQYALAGGATPICVVSSPRKADICRAMGAEAIIDRSAEGYRFWKDEHHQDPREWKRLGGKIREFTGGEDVDIVFEHPGRETFGASVYVTRKGGTIVTCASTSGYMHQYDNRYLWMSLKRIVGSHFANYREAFEANRLVAKGKIHPTLSKVYALEETGQAALDVHHNKHQGKVGVLCLAPREGLGVTDPELRSKHLTKINAFRNV	14 ± 1	57	57 ± 1				
KsCcr variant Ser119Ala: KsCcr variant Ser119Ala, SEQ ID NO: 22 (protein, KsCcr variant Ser119Ala) MQEILDAILSGDAASADYAALALPESYRAVTLHKGEERMFDGLASRDKDPRKSLHLDDVPLPELGPGEALVAVMASSVNYNTVWSSIFEPVSTFGFLERYGRLSPLTARHDLPYHVLGADLAGVVLRTGAGVNAWKPGDEVVAHCLSVELESPDGHNDTMMDPEQRIWGFETNFGGLAQLALVKTNQLLPKPKHLTWEEAASPGLVNSTAYRQLVSRNGAGLKQGDNVLIWGASGGLGSYATQYALAGGATPICVVSSPRKADICRAMGAEAIIDRSAEGYRFWKDEHHQDPREWKRLGGKIREFTGGEDVDIVFEHPGRETFGASVYVTRKGGTIVTCASTSGYMHQYDNRYLWMSLKRIVGSHFANYREAFEANRLVAKGKIHPTLSKVYALEETGQAALDVHHNKHQGKVGVLCLAPREGLGVTDPELRSKHLTKINAFRNV	37 ± 3	83	83 ± 0				
KsCcr WT: wild type crotonyl-CoA carboxylase/reductase obtained from Kitasatospora setae, SEQ ID NO: 1 (protein, Kitasatospora setae KsCCR crotonyl-CoA carboxylase/reductase) MQEILDAILSGDAASADYAALALPESYRAVTLHKGEERMFDGLASRDKDPRKSLHLDDVPLPELGPGEALVAVMASSVNYNTVWSSIFEPVSTFGFLERYGRLSPLTARHDLPYHVLGSDLAGVVLRTGAGVNAWKPGDEVVAHCLSVELESPDGHNDTMMDPEQRIWGFETNFGGLAQLALVKTNQLLPKPKHLTWEEAASPGLVNSTAYRQLVSRNGAGLKQGDNVLIWGASGGLGSYATQYALAGGATPICVVSSPRKADICRAMGAEAIIDRSAEGYRFWKDEHHQDPREWKRLGGKIREFTGGEDVDIVFEHPGRETFGASVYVTRKGGTIVTCASTSGYMHQYDNRYLWMSLKRIVGSHFANYREAFEANRLVAKGKIHPTLSKVYALEETGQAALDVHHNKHQGKVGVLCLAPREGLGVTDPELRSKHLTKINAFRNV	72 ± 1±		96 ± 0	up to 72%	35	strongly decreased	> 95
KsCcr variant Asn81Asp: KsCcr active site variant Asn81Asp, no SEQ ID given (protein) MQEILDAILSGDAASADYAALALPESYRAVTLHKGEERMFDGLASRDKDPRKSLHLDDVPLPELGPGEALVAVMASSVNYDTVWSSIFEPVSTFGFLERYGRLSPLTARHDLPYHVLGSDLAGVVLRTGAGVNAWKPGDEVVAHCLSVELESPDGHNDTMMDPEQRIWGFETNFGGLAQLALVKTNQLLPKPKHLTWEEAASPGLVNSTAYRQLVSRNGAGLKQGDNVLIWGASGGLGSYATQYALAGGATPICVVSSPRKADICRAMGAEAIIDRSAEGYRFWKDEHHQDPREWKRLGGKIREFTGGEDVDIVFEHPGRETFGASVYVTRKGGTIVTCASTSGYMHQYDNRYLWMSLKRIVGSHFANYREAFEANRLVAKGKIHPTLSKVYALEETGQAALDVHHNKHQGKVGVLCLAPREGLGVTDPELRSKHLTKINAFRNV	1 ± 0		11 ± 0				
KsCcr variant Glu171Ala: KsCcr variant Glu171Ala, SEQ ID NO: 24 (protein, KsCcr variant Glu171Ala) MQEILDAILSGDAASADYAALALPESYRAVTLHKGEERMFDGLASRDKDPRKSLHLDDVPLPELGPGEALVAVMASSVNYNTVWSSIFEPVSTFGFLERYGRLSPLTARHDLPYHVLGSDLAGVVLRTGAGVNAWKPGDEVVAHCLSVELESPDGHNDTMMDPEQRIWGFATNFGGLAQLALVKTNQLLPKPKHLTWEEAASPGLVNSTAYRQLVSRNGAGLKQGDNVLIWGASGGLGSYATQYALAGGATPICVVSSPRKADICRAMGAEAIIDRSAEGYRFWKDEHHQDPREWKRLGGKIREFTGGEDVDIVFEHPGRETFGASVYVTRKGGTIVTCASTSGYMHQYDNRYLWMSLKRIVGSHFANYREAFEANRLVAKGKIHPTLSKVYALEETGQAALDVHHNKHQGKVGVLCLAPREGLGVTDPELRSKHLTKINAFRNV	43 ± 0		89 ± 0				
